This is an account of results in PMC2116342 (The Journal of Cell Biology, 1990).

Data set [1] concerns the target L-desmin (desmin lacking its carboxy-terminal 27 residues) (chicken). Nature of the data set: cross-linking.
The data set “cross-linking” deals with the molecule itself. Nature of the data set: cross-linking.

In the case of “L-desmin (desmin lacking its carboxy-terminal 27 residues) (domain or fragment)”, the stoichiometry N (as a rule, a count of units in the complex or per binding partner) in data set [1] stood at 4.

B1: desmin (intact chicken gizzard desmin) (natural protein, UniProt P02542 1-464, looked up)
chain: MSQSYSSSQRVSSYRRTFGGGTSPVFPRASFGSRGSGSSVTSRVYQVSRTSAVPTLSTFRTTRVTPLRTYQSAYQGAGELLDFSLADAMNQEFLQTRTNEKVELQELNDRFANYIEKVRFLEQQNALMVAEVNRLRGKEPTRVAEMYEEELRELRRQVDALTGQRARVEVERDNLLDDLQKLKQRLQEEIQLKEEAENNLAAFRADVDAATLARIDLERRIESLQEEIAFLKKVHEEEIRELQAQLQEQHIQVEMDISKPDLTAALRDIRAQYESIAAKNIAEAEEWYKSKVSDLTQAANKNNDALRQAKQEMLEYRHQIQSYTCEIDALKGTNDSLMRQMREMEERFAGEAGGYQDTIARLEEEIRHLKDEMARHLREYQDLLNVKMALDVEIATYRKLLEGEENRISIPMHQTFASALNFRETSPDQRGSEVHTKKTVMIKTIETRDGEVVSEATQQQHEVL
For the molecule B1, the “stoichiometry N” value in the data set “cross-linking” came out at 4.
